Test results taken from US20230183352A1 (published 2023).
Read-outs that look alike come from different tables or passages of the source.

Key:
[1] = biological target: T1, Claudin 18.2 (CLDN18.2), expressed on CHOS-CLDN 18.2 / HEK293-CLDN 18.2 / HCC827-CLDN 18.2 cells (human, UniProt P56856-2 1-261); test: FACS, CHOS-CLDN18.2 cells, 1.250 µg/ml
T1 construct: whole, on cells; The species is not repeated for the CHOS-CLDN 18.2 cells; also called claudin-18A2
Method: (§1) The initial concentration of the antibody was 20 μg/ml, it was diluted at 1:4, and incubated at 4° C. for 60 min.

[2] = biological target: T1, Claudin 18.2 (CLDN18.2), expressed on …; test: FACS, CHOS-CLDN18.2 cells, 0 µg/ml (background)
Method: as §1

[3] = biological target: T1, Claudin 18.2 (CLDN18.2), expressed on …; test: FACS, CHOS-CLDN18.2 cells, 0.020 µg/ml
Method: as §1

[4] = biological target: T1, Claudin 18.2 (CLDN18.2), expressed on …; test: FACS, CHOS-CLDN18.2 cells
Method: as §1

[5] = biological target: T1, Claudin 18.2 (CLDN18.2), expressed on …; test: FACS, CHOS-CLDN18.2 cells, 10 µg/ml
Method: The initial concentration of the antibody was 20 μg/mkit was diluted at 1:4, and incubated at 4° C. for 60 min.

[6] = biological target: T1, Claudin 18.2 (CLDN18.2), expressed on …; test: FACS, CHOS-CLDN18.2 cells, 0.078 µg/ml
Method: as §1

[7] = biological target: T1, Claudin 18.2 (CLDN18.2), expressed on …; test: FACS, CHOS-CLDN18.2 cells; remark: listed apart in the source
Method: as §1

[8] = biological target: T1, Claudin 18.2 (CLDN18.2), expressed on …; test: FACS, CHOS-CLDN18.2 cells, 0.078 µg/ml; remark: listed apart in the source
Method: as §1

[9] = biological target: T1, Claudin 18.2 (CLDN18.2), expressed on …; test: FACS, CHOS-CLDN18.2 cells, 0.313 µg/ml
Method: as §1

[10] = biological target: T1, Claudin 18.2 (CLDN18.2), expressed on …; test: FACS, CHOS-CLDN18.2 cells, 0.005 µg/ml
Method: as §1

[11] = biological target: T1, Claudin 18.2 (CLDN18.2), expressed on …; test: FACS, CHOS-CLDN18.2 cells; remark: listed apart in the source
Method: as §1

[12] = biological target: T1, Claudin 18.2 (CLDN18.2), expressed on …; test: FACS, CHOS-CLDN18.2 cells, 1.250 µg/ml; remark: listed apart in the source
Method: as §1

[13] = biological target: T1, Claudin 18.2 (CLDN18.2), expressed on …; test: FACS, CHOS-CLDN18.2 cells, 0 µg/ml (background); remark: listed apart in the source
Method: as §1

[14] = biological target: T1, Claudin 18.2 (CLDN18.2), expressed on …; test: FACS, CHOS-CLDN18.2 cells, 20 µg/ml
Method: as §1

[15] = biological target: T1, Claudin 18.2 (CLDN18.2), expressed on …; test: FACS, CHOS-CLDN18.2 cells, 20 µg/ml; remark: listed apart in the source
Method: as §1

[16] = biological target: T1, Claudin 18.2 (CLDN18.2), expressed on …; test: FACS, CHOS-CLDN18.2 cells, 1.250 µg/ml; remark: listed apart in the source
Method: as §1

[17] = biological target: T1, Claudin 18.2 (CLDN18.2), expressed on …; test: FACS, CHOS-CLDN18.2 cells, 0.313 µg/ml; remark: listed apart in the source
Method: as §1

[18] = biological target: T1, Claudin 18.2 (CLDN18.2), expressed on …; test: FACS, CHOS-CLDN18.2 cells; remark: listed apart in the source
Method: as §1

B1: QP024025 (antibody, human IgG1, V domains shown)
VH: QVQLQQPGAELVRPGASVKLSCKASGYTFTSYWINWVKQRPGQGLEWIGNIYPSDSYTNYNQKFKDKATLTVDKSSSTAYMQLSSPTSEDSAVYYCTRSWRGNSFDYWGQGTTLTVSS
VL: DIVMTQSPSSLTVTAGEKVTMSCKSSQSLLNSGNQKNYLTWYQQKPGQPPKLLIYWASTRESGVPDRFTGSGSGTDFTLTISSVQAEDLAVYYCQNDYSYPFTFGSGTKLEIK
notes: also called IMAB362; 175D10(IMAB362)
- FACS reading [1]: 63700
- FACS reading [2]: 732
- FACS reading [3]: 6950
- EC50 [4]: 0.27 µg/mL
- max [4]: 88600
- MFI [5]: 145000
- FACS reading [6]: 18200
- EC50 [7]: 0.27 µg/mL
- max [7]: 88600
- FACS reading [8]: 18200
- FACS reading [9]: 51000
- FACS reading [10]: 2830
- EC50 [11]: 0.27 µg/mL
- max [11]: 88600
- FACS reading [12]: 63700
- FACS reading [13]: 732
- FACS reading [14]: 72300
- FACS reading [15]: 72300
- FACS reading [16]: 63700
- FACS reading [17]: 51000
- EC50 [18]: 0.27 µg/mL
- max [18]: 88600
